# Measurements published in patent US20090208416A1.
# Legend:
# [1] = target: NKG2A on rhesus monkey (Macaca mulatta) NK cells (rhesus monkey (Macaca mulatta)) (UniProt Q9MZJ3); experiment: FACS rhesus whole blood, animal O967
# [2] = target: NKG2A on rhesus monkey (Macaca mulatta) NK cells (rhesus monkey (Macaca mulatta)) (UniProt Q9MZJ3); experiment: FACS rhesus whole blood, animal 31828
# [3] = target: NKG2A on rhesus monkey (Macaca mulatta) NK cells (rhesus monkey (Macaca mulatta)) (UniProt Q9MZJ3); experiment: FACS rhesus whole blood, animal 34459
# [4] = target: NKG2A on rhesus monkey (Macaca mulatta) NK cells (rhesus monkey (Macaca mulatta)) (UniProt Q9MZJ3); experiment: FACS rhesus whole blood, animal R00007
# [5] = target: NKG2A on rhesus monkey (Macaca mulatta) NK cells (rhesus monkey (Macaca mulatta)) (UniProt Q9MZJ3); experiment: FACS rhesus whole blood, animal R00013
# [6] = target: NKG2A on rhesus monkey (Macaca mulatta) NK cells (rhesus monkey (Macaca mulatta)) (UniProt Q9MZJ3); experiment: FACS rhesus whole blood, animal R00023
# [7] = target: NKG2A on rhesus monkey (Macaca mulatta) NK cells (rhesus monkey (Macaca mulatta)) (UniProt Q9MZJ3); experiment: FACS rhesus whole blood, animal R00025
# [8] = target: NKG2A on rhesus monkey (Macaca mulatta) NK cells (rhesus monkey (Macaca mulatta)) (UniProt Q9MZJ3); experiment: FACS rhesus whole blood, animal R00037
# [9] = target: NKG2A on rhesus monkey (Macaca mulatta) NK cells (rhesus monkey (Macaca mulatta)) (UniProt Q9MZJ3); experiment: FACS rhesus whole blood, animal R00041
# [10] = target: NKG2A on rhesus monkey (Macaca mulatta) NK cells (rhesus monkey (Macaca mulatta)) (UniProt Q9MZJ3); experiment: FACS rhesus whole blood, animal R00055
# [11] = target: NKG2A on rhesus monkey (Macaca mulatta) NK cells (rhesus monkey (Macaca mulatta)) (UniProt Q9MZJ3); experiment: FACS rhesus whole blood, animal R00061
# [12] = target: NKG2A on rhesus monkey (Macaca mulatta) NK cells (rhesus monkey (Macaca mulatta)) (UniProt Q9MZJ3); experiment: FACS rhesus whole blood, animal R00077
# [13] = target: NKG2A on rhesus monkey (Macaca mulatta) NK cells (rhesus monkey (Macaca mulatta)) (UniProt Q9MZJ3); experiment: FACS rhesus whole blood, animal R00085
# [14] = target: NKG2A on rhesus monkey (Macaca mulatta) NK cells (rhesus monkey (Macaca mulatta)) (UniProt Q9MZJ3); experiment: FACS rhesus whole blood, animal R00093
# [15] = target: NKG2A on rhesus monkey (Macaca mulatta) NK cells (rhesus monkey (Macaca mulatta)) (UniProt Q9MZJ3); experiment: FACS rhesus whole blood, animal R00099
# [16] = target: NKG2A on rhesus monkey (Macaca mulatta) NK cells (rhesus monkey (Macaca mulatta)) (UniProt Q9MZJ3); experiment: FACS rhesus whole blood, animal R00101
# [17] = target: NKG2A on rhesus monkey (Macaca mulatta) NK cells (rhesus monkey (Macaca mulatta)) (UniProt Q9MZJ3); experiment: FACS rhesus whole blood, animal R99273
# [18] = target: NKG2A on cynomolgus monkey NK cells (cynomolgus monkey) (UniProt Q68VD2); experiment: FACS cynomolgus whole blood, animal 1221
# Chain of UniProt Q68VD2 (Q68VD2 entry or part of it): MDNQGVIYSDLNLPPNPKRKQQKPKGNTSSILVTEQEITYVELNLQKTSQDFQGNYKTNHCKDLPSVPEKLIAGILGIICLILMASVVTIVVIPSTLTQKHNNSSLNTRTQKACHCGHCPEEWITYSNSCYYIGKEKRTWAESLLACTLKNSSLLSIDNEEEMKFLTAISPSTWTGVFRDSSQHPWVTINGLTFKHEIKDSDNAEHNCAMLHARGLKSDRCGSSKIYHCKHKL
# [19] = target: NKG2A on cynomolgus monkey NK cells (cynomolgus monkey) (UniProt Q68VD2); experiment: FACS cynomolgus whole blood, animal M859
# [20] = target: NKG2A on cynomolgus monkey NK cells (cynomolgus monkey) (UniProt Q68VD2); experiment: FACS cynomolgus whole blood, animal R390
# [21] = target: NKG2A on cynomolgus monkey NK cells (cynomolgus monkey) (UniProt Q68VD2); experiment: FACS cynomolgus whole blood, animal T270
# [22] = target: NKG2A on cynomolgus monkey NK cells (cynomolgus monkey) (UniProt Q68VD2); experiment: FACS cynomolgus whole blood, animal T788
# [23] = target: NKG2A on cynomolgus monkey NK cells (cynomolgus monkey) (UniProt Q68VD2); experiment: FACS cynomolgus whole blood, animal AK565
# [24] = target: NKG2A on cynomolgus monkey NK cells (cynomolgus monkey) (UniProt Q68VD2); experiment: FACS cynomolgus whole blood, animal AK729
# [25] = target: NKG2A on cynomolgus monkey NK cells (cynomolgus monkey) (UniProt Q68VD2); experiment: FACS cynomolgus whole blood, animal AL210
# [26] = target: NKG2A on cynomolgus monkey NK cells (cynomolgus monkey) (UniProt Q68VD2); experiment: FACS cynomolgus whole blood, animal AL303
# [27] = target: NKG2A on cynomolgus monkey NK cells (cynomolgus monkey) (UniProt Q68VD2); experiment: FACS cynomolgus whole blood, animal AL389
# [28] = target: NKG2A on rhesus monkey (Macaca mulatta) NK cells (rhesus monkey (Macaca mulatta)) (UniProt Q9MZJ3); experiment: FACS rhesus whole blood, mean over animals
# [29] = target: NKG2A on rhesus monkey (Macaca mulatta) NK cells (rhesus monkey (Macaca mulatta)) (UniProt Q9MZJ3); experiment: FACS rhesus whole blood, animal R00073 (5.6 kg)
# [30] = target: NKG2A on rhesus monkey (Macaca mulatta) NK cells (rhesus monkey (Macaca mulatta)) (UniProt Q9MZJ3); experiment: FACS rhesus whole blood, animal R00073 (6.1 kg)
# [31] = target: NKG2A on cynomolgus monkey NK cells (cynomolgus monkey) (UniProt Q68VD2); experiment: FACS cynomolgus whole blood, mean of 10 animals
# Chain of UniProt Q9MZJ3 (Q9MZJ3 whole entry): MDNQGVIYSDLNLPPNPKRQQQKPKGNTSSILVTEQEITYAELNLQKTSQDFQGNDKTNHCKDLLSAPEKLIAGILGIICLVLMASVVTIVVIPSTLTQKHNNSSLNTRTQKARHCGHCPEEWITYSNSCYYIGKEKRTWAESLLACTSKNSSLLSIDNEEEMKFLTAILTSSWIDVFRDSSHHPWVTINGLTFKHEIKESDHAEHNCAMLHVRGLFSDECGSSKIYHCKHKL
substance,measurement,setting,value
mouse IgG2b isotype control (antibody),% NK+,[1],0.5%
same,MFI,[1],0.7
same,% NK+,[2],0.5%
same,MFI,[2],0.7
same,% NK+,[3],1.2%
same,MFI,[3],0.7
same,% NK+,[4],0.7%
same,MFI,[4],0.4
same,% NK+,[5],0.2%
same,MFI,[5],0.6
same,% NK+,[6],0.6%
same,MFI,[6],0.3
same,% NK+,[7],0.4%
same,MFI,[7],0.4
same,% NK+,[8],0.3%
same,MFI,[8],0.5
same,% NK+,[9],0.3%
same,MFI,[9],0.4
same,% NK+,[10],0.9%
same,MFI,[10],0.6
same,% NK+,[11],0.2%
same,MFI,[11],0.6
same,% NK+,[12],0.5%
same,MFI,[12],0.4
same,% NK+,[13],0.3%
same,MFI,[13],0.7
same,% NK+,[14],0.4%
same,MFI,[14],0.6
same,% NK+,[15],0.3%
same,MFI,[15],0.5
same,% NK+,[16],0.4%
same,MFI,[16],0.5
same,% NK+,[17],0.6%
same,MFI,[17],0.4
same,% NK+,[18],1.3%
same,MFI,[18],0.8
same,% NK+,[19],0.2%
same,MFI,[19],0.6
same,% NK+,[20],0.2%
same,MFI,[20],0.5
same,% NK+,[21],0.2%
same,MFI,[21],0.6
same,% NK+,[22],0.4%
same,MFI,[22],0.6
same,% NK+,[23],0.3%
same,MFI,[23],0.6
same,% NK+,[24],0.3%
same,MFI,[24],0.6
same,% NK+,[25],0.3%
same,MFI,[25],0.7
same,% NK+,[26],0.14%
same,MFI,[26],0.7
same,% NK+,[27],0.4%
same,MFI,[27],0.8
same,% NK+ (Mean),[28],0.5%
same,MFI (Mean),[28],0.5
same,% NK+,[29],0.39%
same,MFI,[29],0.4
same,% NK+,[30],0.3%
same,MFI,[30],0.3
same,% NK+ (Mean),[31],0.4%
same,MFI (Mean),[31],0.7
Z199 anti-NKG2A monoclonal antibody,% NK+,[1],84.8%
same,MFI,[1],62.3
same,MFI NK+,[1],73.4
same,% NK+,[2],99.8%
same,MFI,[2],101
same,MFI NK+,[2],101
same,% NK+,[3],96.2%
same,MFI,[3],63.8
same,MFI NK+,[3],66.3
same,% NK+,[4],99.6%
same,MFI,[4],34.9
same,MFI NK+,[4],35
same,% NK+,[5],97.8%
same,MFI,[5],38.8
same,MFI NK+,[5],39.7
same,% NK+,[6],96.4%
same,MFI,[6],34
same,MFI NK+,[6],35.3
same,% NK+,[7],97.3%
same,MFI,[7],30
same,MFI NK+,[7],30.9
same,% NK+,[8],96.9%
same,MFI,[8],26.7
same,MFI NK+,[8],27.5
same,% NK+,[9],89.6%
same,MFI,[9],33.1
same,MFI NK+,[9],36.9
same,% NK+,[11],40.7%
same,MFI,[11],1.6
same,MFI NK+,[11],2.4
same,% NK+,[12],97.1%
same,MFI,[12],30.4
same,MFI NK+,[12],31.3
same,% NK+,[13],91.9%
same,MFI,[13],68.4
same,MFI NK+,[13],74.4
same,% NK+,[14],97.9%
same,MFI,[14],81.9
same,MFI NK+,[14],83.6
same,% NK+,[15],97.6%
same,MFI,[15],31.1
same,MFI NK+,[15],31.8
same,% NK+,[16],98.7%
same,MFI,[16],37.1
same,MFI NK+,[16],37.6
same,% NK+,[17],98%
same,MFI,[17],32.7
same,MFI NK+,[17],33.4
same,% NK+,[18],96.7%
same,MFI,[18],105
same,MFI NK+,[18],109
same,% NK+,[19],95.1%
same,MFI,[19],144
same,MFI NK+,[19],152
same,% NK+,[20],99%
same,MFI,[20],32.3
same,MFI NK+,[20],32.6
same,% NK+,[21],97.7%
same,MFI,[21],113
same,MFI NK+,[21],116
same,% NK+,[22],97%
same,MFI,[22],123
same,MFI NK+,[22],126
same,% NK+,[23],90.7%
same,MFI,[23],28.2
same,MFI NK+,[23],31
same,% NK+,[24],99.4%
same,MFI,[24],37.4
same,MFI NK+,[24],37.7
same,% NK+,[25],92.7%
same,MFI,[25],126
same,MFI NK+,[25],136
same,% NK+,[26],99.1%
same,MFI,[26],129
same,MFI NK+,[26],130
same,% NK+,[27],95.5%
same,MFI,[27],223
same,MFI NK+,[27],234
same,% NK+ (Mean),[28],93.2%
same,MFI (Mean),[28],29.6
same,MFI NK+ (Mean),[28],30.6
same,% NK+,[29],99.1%
same,MFI,[29],31.6
same,MFI NK+,[29],31.9
same,% NK+,[30],98%
same,MFI,[30],31.9
same,MFI NK+,[30],32.6
same,% NK+ (Mean),[31],96.3%
same,MFI (Mean),[31],106
same,MFI NK+ (Mean),[31],110
